# According to publication PMC10090351, “DNA accelerates the protease inhibition of a bacterial serpin chloropin” (Frontiers in Molecular Biosciences, 2023):
# Experiments:
# thrombin [1] = target: thrombin (UniProt P00734)
# kallikrein 7 = kallikrein 7 (UniProt P49862 30-253); assay: cell-based or functional assay
# thrombin [2] = target: thrombin (UniProt P00734); remark: listed apart in the source
# thrombin [3] = target: thrombin (UniProt P00734); remark: listed apart in the source
# thrombin [4] = target: thrombin (UniProt P00734); remark: listed apart in the source
# thrombin [5] = target: thrombin (UniProt P00734); remark: listed apart in the source
# Sequence of kallikrein 7 (P49862 30-253): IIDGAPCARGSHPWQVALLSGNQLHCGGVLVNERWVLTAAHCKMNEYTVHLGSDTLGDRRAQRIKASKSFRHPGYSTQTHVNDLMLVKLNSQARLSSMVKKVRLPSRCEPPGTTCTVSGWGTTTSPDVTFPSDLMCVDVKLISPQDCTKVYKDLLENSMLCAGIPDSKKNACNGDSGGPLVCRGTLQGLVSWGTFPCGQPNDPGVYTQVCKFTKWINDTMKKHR
Molecule,"k obs of thrombin inhibition, 375 nM chloropin variant, 75 nM thrombin, with 0.8 nM linear plasmid DNA (thrombin [1])","k obs of thrombin inhibition, 375 nM chloropin variant, 75 nM thrombin, without linear plasmid DNA (thrombin [1])","k obs of thrombin inhibition, 1 uM chloropin variant, 0.1 uM thrombin, with 0.1 uM heparin (thrombin [1])","k obs of thrombin inhibition, 1 uM chloropin variant, 0.1 uM thrombin, without heparin (thrombin [1])","stoichiometry of inhibition (SI), residual KLK7 activity after 12 h with 0-2 uM chloropin (kallikrein 7)","k 2, derived second-order inhibition rate constant (thrombin [2])","k app, apparent second-order rate constant of thrombin inhibition (residual protease activity) (thrombin [2])","stoichiometry of inhibition (SI), residual thrombin activity after 12 h with 0-2 uM chloropin (thrombin [2])","fold increase of k obs of thrombin inhibition with low molecular weight heparin (series of concentrations, bell-shaped; 5.9-fold at 0.1 uM, maximum at 0.5 uM) (thrombin [3])","k obs of thrombin inhibition, 375 nM chloropin, 75 nM thrombin, with 0.8 nM linear plasmid DNA (thrombin [1])","k obs of thrombin inhibition, 375 nM chloropin, 75 nM thrombin, with supercoiled plasmid DNA (thrombin [1])","k obs of thrombin inhibition, 375 nM chloropin, 75 nM thrombin, without linear plasmid DNA (thrombin [1])","k obs of thrombin inhibition, 375 nM chloropin, 75 nM thrombin, without supercoiled plasmid DNA (thrombin [1])","k obs of thrombin inhibition, 1 uM chloropin, 0.1 uM thrombin, with 0.1 uM heparin (thrombin [1])","k obs of thrombin inhibition, 1 uM chloropin, 0.1 uM thrombin, without heparin (thrombin [1])",fold increase of the rate of thrombin inhibition with linear DNA (series of concentrations; maximum around 2.4-4.8 nM) (thrombin [4]),"fold increase of the rate of thrombin inhibition with supercoiled plasmid DNA (0.05-25.6 nM, bell-shaped; 1.5-fold at 0.1 nM, maximum between 1.6 and 3.2 nM) (thrombin [4])",second order rate constant of thrombin inhibition with DNA (thrombin [5])
Chloropin K126D/K127D (natural protein),0.0035 s⁻¹,0.0036 s⁻¹,0.0107 s⁻¹,0.0086 s⁻¹,,,,,,,,,,,,,,
Chloropin K268D/K269D (natural protein),0.0041 s⁻¹,0.0035 s⁻¹,0.0096 s⁻¹,0.0083 s⁻¹,,,,,,,,,,,,,,

# Results, then the molecule that gave them:
"k obs of thrombin inhibition, 375 nM chloropin variant, 75 nM thrombin, with 0.8 nM linear plasmid DNA (thrombin [1])","k obs of thrombin inhibition, 375 nM chloropin variant, 75 nM thrombin, without linear plasmid DNA (thrombin [1])","k obs of thrombin inhibition, 1 uM chloropin variant, 0.1 uM thrombin, with 0.1 uM heparin (thrombin [1])","k obs of thrombin inhibition, 1 uM chloropin variant, 0.1 uM thrombin, without heparin (thrombin [1])","stoichiometry of inhibition (SI), residual KLK7 activity after 12 h with 0-2 uM chloropin (kallikrein 7)","k 2, derived second-order inhibition rate constant (thrombin [2])","k app, apparent second-order rate constant of thrombin inhibition (residual protease activity) (thrombin [2])","stoichiometry of inhibition (SI), residual thrombin activity after 12 h with 0-2 uM chloropin (thrombin [2])","fold increase of k obs of thrombin inhibition with low molecular weight heparin (series of concentrations, bell-shaped; 5.9-fold at 0.1 uM, maximum at 0.5 uM) (thrombin [3])","k obs of thrombin inhibition, 375 nM chloropin, 75 nM thrombin, with 0.8 nM linear plasmid DNA (thrombin [1])","k obs of thrombin inhibition, 375 nM chloropin, 75 nM thrombin, with supercoiled plasmid DNA (thrombin [1])","k obs of thrombin inhibition, 375 nM chloropin, 75 nM thrombin, without linear plasmid DNA (thrombin [1])","k obs of thrombin inhibition, 375 nM chloropin, 75 nM thrombin, without supercoiled plasmid DNA (thrombin [1])","k obs of thrombin inhibition, 1 uM chloropin, 0.1 uM thrombin, with 0.1 uM heparin (thrombin [1])","k obs of thrombin inhibition, 1 uM chloropin, 0.1 uM thrombin, without heparin (thrombin [1])",fold increase of the rate of thrombin inhibition with linear DNA (series of concentrations; maximum around 2.4-4.8 nM) (thrombin [4]),"fold increase of the rate of thrombin inhibition with supercoiled plasmid DNA (0.05-25.6 nM, bell-shaped; 1.5-fold at 0.1 nM, maximum between 1.6 and 3.2 nM) (thrombin [4])",second order rate constant of thrombin inhibition with DNA (thrombin [5]),Molecule
0.0055 s⁻¹,0.0038 s⁻¹,0.0555 s⁻¹,0.0095 s⁻¹,,,,,,,,,,,,,,,Chloropin K119D (natural protein)
,,,,1.55,25000 M⁻¹ s⁻¹,14700 M⁻¹ s⁻¹,1.68,17.2 fold,0.0142 s⁻¹,0.0193 s⁻¹,0.0035 s⁻¹,0.0035 s⁻¹,0.0667 s⁻¹,0.0083 s⁻¹,142 fold,74 fold,3.6e+06 M⁻¹ s⁻¹,"chloropin (natural protein, Chlorobium limicola, UniProt B3ECZ8 54-420, looked up) ELAVDLYRNLAVTGKNLFFSPSSIETALSMTMSGARNRTERQMADVMHVGPDAMERHHAGLASFEKQLESIQKKGKVTIASSNSIWPQKNYPLAPSWLAQLKRYYGTSVTPVDYIHETEKARIAINRRVEKDTKNRIRELLKPGILDPLTRLALVNAVYFKGDWEHPFNENNTVASPFYIRQGTTGKAPLMRQSASFGYGDHDGVQVLELPYAGKKLSMIVVLPKERFGLEALEKTLTPKQFALWTANLSERKIEALLPKFRTTSAFRLDETLRHMGMTDAFDRNLADFSGMVSNSDKLYIGAVVHKAFVDVGEKGTEAAAATAVVMQLRSAMPMPVPVFKADHPFLFAIRENSTGRILFMGRISDP"
